Three molecules from publication PMC7954794, “Protein context shapes the specificity of SH3 domain-mediated interactions in vivo” (Nature Communications, 2021) can be followed below.

Holding throughout (format): cell-based, Saccharomyces cerevisiae
Assay [1] deals with Sla1-GFP foci. Nature of the assay: Live imaging of endocytosis, Sla1-GFP foci tracking (Fig. 4E-H, S5E-I). The conditions noted are these: for mean effective distance towards centroid: n 3286. The protocol:
Overnight cultures of Sla1-GFP cells were diluted to an OD600 of 0.15 and grown in synthetic complete medium without tryptophan until they reached an OD600 of ~0.4–0.5 at 30 °C. The cells were then seeded on concanavalin A 0.05 mg/mL (Millipore Sigma) coated 8-well glass-bottom chamber slides (Sarstedt). Image acquisition was performed using a Perkin Elmer UltraVIEW confocal spinning disk unit attached to a Nikon Eclipse TE2000-U inverted microscope equipped with a Plan Apochromat DIC H 100×/1.4 oil objective (Nikon), and a Hamamatsu Orca Flash 4.0 LT + camera. Imaging was done at 25 °C in an environmental chamber. The software NIS-Elements (Nikon) was used for image capture. For each field, one brightfield and a series of fluorescence (GFP) images were taken. Cells were excited with a 488 nm laser and emission was filtered with a 530/630 nm filter. GFP time laps were acquired continuously at a rate of 1 frame/sec for 3 min.
Bright-field images were used to segment cells using YeastSpotter[60]. Cells were filtered based on circularity, solidity, and the normalized difference between minor and major axis lengths to remove poorly detected cells. Out-of-focus cells were also filtered out based on size and brightness. The centroids of the segmented cells were used to identify the locations of each cell in the image using Scikit-Image[61]. The location of each cell was used to isolate individual cell time-frames of fluorescence (GFP) images. Each cell time frame of the fluorescence images was processed through a python-based single-particle tracking tool—Trackpy[62]. Trackpy detected the locations of Sla1-GFP positive foci in each frame and linked them together to provide particle-wise trajectories. Trajectories detected in less than ten frames were considered spurious and were filtered out. Segments of the trajectories spuriously indicating movement of the particles back to the cell membrane were trimmed. The preprocessed trajectories of the particles were then used for the calculation of distances using the spatial distance module of “SciPy”[63]. The python-based code used for the analysis of microscopy images is included in the endocytosis module of “htsimaging” package.

In assay [2] the test system is Hua2. Nature of the assay: Deep mutational scanning of Abp1 SH3, Abp1-Hua2 DHFR-PCA (DMS score). The conditions noted are these: for hua2sc (DMS score): Frequencies scaled to the synonymous mutation distribution (DMS score), Hua2; for HUA2_MTX2: frequencies normalized to the reference condition, Abp1-Hua2, MTX2. Put shortly:
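Each SH3 position is mutated to all possible codons within endogenous ABP1; the pooled strains are crossed to DHFR F[3]-tagged partners, diploids are enriched in NAT/HPH media, and two 72 h complementation selections at 30 °C follow, with Illumina counts of the locus yielding the score.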

For assay [3], the system named is Hua2 and Lsb3. As to the kind of experiment: Quadrant classification of Abp1 SH3 variants from DMS scores (Abp1-Hua2 and Abp1-Lsb3 DHFR-PCA). The conditions noted are these: class by effect on Hua2 and Lsb3 PPIs (Dest. both / Dest. Hua2 / Dest. Lsb3 / Neutral).
Assay [4] relates to Lsb3. As to the kind of experiment: Deep mutational scanning of Abp1 SH3, Abp1-Lsb3 DHFR-PCA (DMS score). As to conditions: for lsb3sc (DMS score): Frequencies scaled to the synonymous mutation distribution (DMS score), Lsb3; for LSB3_MTX2: frequencies normalized to the reference condition, Abp1-Lsb3, MTX2. On the procedure: Single site mutation libraries were generated by a PCR-based saturation mutagenesis method[50] as described below. The mutagenesis was carried out on the pUC19 plasmid containing the SH3 domain sequence of ABP1 flanked by its homology arms subsequently used in the CRISPR mediated genomic re-integration. We used oligos containing degenerate nucleotides (NNN) to carry out the mutagenesis at each codon of the domain sequence. In the first step of the two-step PCR procedure (short PCR step), an amplicon was generated with an oligo containing the degenerate codon which is positioned within the domain sequence, and another oligo lying outside Abp1 sequence in the plasmid. Short PCR step was carried out with the following settings: 5 min at 95 °C, 35 cycles: 20 s at 98 °C, 15 s at 60 °C, 30 s at 72 °C, and a final extension of 1 min at 72 °C. The amplicon generated in this step was used as a mega primer in the second step (long PCR step) to amplify the whole plasmid. Long PCR step was carried out with the following settings: 5 min at 95 °C, 22 cycles: 20 s at 98 °C, 15 s at 68 °C, 3 min 30 s at 72 °C, and a final extension of 5 min at 72 °C. The long PCR product was digested for 2 h at 37 °C with DpnI. The digestion product was then transformed into E. coli MC1061 competent cells. In order to obtain most of the 64 possible codons, we recovered ~1000 colonies from each plate to retrieve the plasmid single mutant libraries. Saturation mutagenesis was carried out in a codon-position-wise manner. Mutants at each position were stored separately. Library quality control was assessed by amplifying the purified plasmid DNA preparations by PCR followed by Illumina sequencing as described below. The genomic insertion of the mutant libraries (one library per amino acid position) was performed by targeting the stuffer sequence in the ABP1 SH3-deleted strain as described in the strain construction section. ABP1 SH3-deleted yeast competent cells were co-transformed with pCAS containing the stuffer-specific gRNA and PCR amplified ABP1 SH3 single position mutated libraries from the pUC19 preparations. As for the library generation, ~1000 colonies from each plate were retrieved. Glycerol stocks of yeast cells were kept for each position (58 different stocks corresponding to the 58 amino acid positions of Abp1 SH3). The stocks were also validated by Illumina sequencing (see below).
Liquid DHFR-PCA experiments were performed following the generation of the ABP1 SH3 single position mutated yeast strains and were performed in biological independent duplicates. An overnight culture was started in YPD + NAT by adding the same number of cells from each yeast mutant strain (master pool). Then, the master pool and Hua2-DHFR F[3] or Lsb3-DHFR F[3] preys strains were mixed in YPD (2:1) for mating and incubated for 8 h at 30 °C. Diploid cells were selected the first time by transferring the mixture in a YPD + NAT + HPH (OD 0.5) culture for 16 h at 30 °C. The next day, the first diploid selection was transferred in SC complete pH 6.0 + NAT + HPH at 0.5 OD and the culture was grown for 24 h at 30 °C. The validation of the yeast mutant libraries was done the next day with a fraction of the diploid cells (first DHFR-PCA experiment time point without PCA selection, reference condition S2) by amplifying ABP1 SH3 genomic sequence followed by Illumina sequencing as described in the section below. Following the selection, diploid cells OD was read using a TECAN Infinite F200 Pro, and dilutions to 0.1 OD in PCA selection media without agar in a 50 mL tube was done. Tubes were incubated at 30 °C for 72 h (second-time point of the DHFR-PCA experiment, first PCA selection). A fraction of the cells (5U OD) was collected for Illumina sequencing. The cells from the first PCA step were grown for a second PCA selection step using the same procedures. […]

The mark [5] stands for this setting: Fig4H,S5G, SLA1 SH3-shuffled or -deleted strain.

B1: Sla1 1|2|3: WT Sla1 (Sla1-GFP in imaging) (protein, UniProt P32790 1-1244, looked up)
Actin cytoskeleton-regulatory …: MTVFLGIYRAVYAYEPQTPEELAIQEDDLLYLLQKSDIDDWWTVKKRVIGSDSEEPVGLVPSTYIEEAPVLKKVRAIYDYEQVQNADEELTFHENDVFDVFDDKDADWLLVKSTVSNEFGFIPGNYVEPENGSTSKQEQAPAAAEAPAATPAAAPASAAVLPTNFLPPPQHNDRARMMQSKEDQAPDEDEEGPPPAMPARPTATTETTDATAAAVRSRTRLSYSDNDNDDEEDDYYYNSNSNNVGNHEYNTEYHSWNVTEIEGRKKKKAKLSIGNNKINFIPQKGTPHEWSIDKLVSYDNEKKHMFLEFVDPYRSLELHTGNTTTCEEIMNIIGEYKGASRDPGLREVEMASKSKKRGIVQYDFMAESQDELTIKSGDKVYILDDKKSKDWWMCQLVDSGKSGLVPAQFIEPVRDKKHTESTASGIIKSIKKNFTKSPSRSRSRSRSKSNANASWKDDELQNDVVGSAAGKRSRKSSLSSHKKNSSATKDFPNPKKSRLWVDRSGTFKVDAEFIGCAKGKIHLHKANGVKIAVAADKLSNEDLAYVEKITGFSLEKFKANDGSSSRGTDSRDSERERRRRLKEQEEKERDRRLKERELYELKKARELLDEERSRLQEKELPPIKPPRPTSTTSVPNTTSVPPAESSNNNNSSNKYDWFEFFLNCGVDVSNCQRYTINFDREQLTEDMMPDINNSMLRTLGLREGDIVRVMKHLDKKFGRENIASIPTNATGNMFSQPDGSLNVATSPETSLPQQLLPQTTSPAQTAPSTSAETDDAWTVKPASKSESNLLSKKSEFTGSMQDLLDLQPLEPKKAAASTPEPNLKDLEPVKTGGTTVPAAPVSSAPVSSAPAPLDPFKTGGNNILPLSTGFVMMPMITGGDMLPMQRTGGFVVPQTTFGMQSQVTGGILPVQKTGNGLIPISNTGGAMMPQTTFGAAATVLPLQKTGGGLIPIATTGGAQFPQTSFNVQGQQQLPTGSILPVQKTANGLISANTGVSMPTVQRTGGTMIPQTSFGVSQQLTGGAMMTQPQNTGSAMMPQTSFNAVPQITGGAMMPQTSFNALPQVTGGAMMPLQRTGGALNTFNTGGAMIPQTSFSSQAQNTGGFRPQSQFGLTLQKTGGIAPLNQNQFTGGAMNTLSTGGVLQQQQPQTMNTFNTGGVMQELQMMTTFNTGGAMQQPQMMNTFNTDGIMQQPQMMNTFNTGGAMQQPQQQALQNQPTGFGFGNGPQQSRQANIFNATASNPFGF
modifications: GFP tag in imaging
Turning to B1, the complete in assay [1] (setting [5]) worked out at 23.1408. The molecule also came in with an incomplete in assay [1] (setting [5]) of 3.31. The “mean effective distance towards centroid” value amounted to 0 in assay [1] (time 0); 1.1628 in assay [1] (time 1); 1.132 in assay [1] (time 2); 2.413 in assay [1] (time 3); 3.293 in assay [1] (time 4).

B2: ABP1 E13E (protein, UniProt P15891 2-592, looked up)
Actin-binding protein: ALEPIDYTTHSREIDAEYLKIVRGSDPDTTWLIISPNAKKEYEPESTGSSFHDFLQLFDETKVQYGLARVSPPGSDVEKIIIIGWCPDSAPLKTRASFAANFAAVANNLFKGYHVQVTARDEDDLDENELLMKISNAAGARYSIQTSSKQQGKASTPPVKKSFTPSKSPAPVSKKEPVKTPSPAPAAKISSRVNDNNDDDDWNEPELKERDFDQAPLKPNQSSYKPIGKIDLQKVIAEEKAKEDPRLVQKPTAAGSKIDPSSDIANLKNESKLKRDSEFNSFLGTTKPPSMTESSLKNDDDKVIKGFRNEKSPAQLWAERKAKQNSGNAETKAEAPKPEVPEDEPEGEPDVKDLKSKFEGLAASEKEEEEMENKFAPPPKKSEPTIISPKPFSKPQEPVKAEEAEQPKTDYKKIGNPLPGMHIEADNEEEPEENDDDWDDDEDEAAQPPLPSRNVASGAPVQKEEPEQEEIAPSLPSRNSIPAPKQEEAPEQAPEEEIEEEAEEAAPQLPSRSSAAPPPPPRRATPEKKPKENPWATAEYDYDAAEDNELTFVENDKIINIEFVDDDWWLGELEKDGSKGLFPSNYVSLGN
modifications: synonymous codon change E13E
Take B2: in assay [2], the “hua2sc (DMS score)” value is reported as -0.2784 and the HUA2_MTX2 was determined as 1.334. In addition, the quadrant result in assay [3] was “Neutral”. In addition, in assay [4], the “lsb3sc (DMS score)” value is -0.3311 and the LSB3_MTX2 is given as 1.169.

B3: ABP1 D14D (protein, UniProt P15891 2-592, looked up)
Actin-binding protein: ALEPIDYTTHSREIDAEYLKIVRGSDPDTTWLIISPNAKKEYEPESTGSSFHDFLQLFDETKVQYGLARVSPPGSDVEKIIIIGWCPDSAPLKTRASFAANFAAVANNLFKGYHVQVTARDEDDLDENELLMKISNAAGARYSIQTSSKQQGKASTPPVKKSFTPSKSPAPVSKKEPVKTPSPAPAAKISSRVNDNNDDDDWNEPELKERDFDQAPLKPNQSSYKPIGKIDLQKVIAEEKAKEDPRLVQKPTAAGSKIDPSSDIANLKNESKLKRDSEFNSFLGTTKPPSMTESSLKNDDDKVIKGFRNEKSPAQLWAERKAKQNSGNAETKAEAPKPEVPEDEPEGEPDVKDLKSKFEGLAASEKEEEEMENKFAPPPKKSEPTIISPKPFSKPQEPVKAEEAEQPKTDYKKIGNPLPGMHIEADNEEEPEENDDDWDDDEDEAAQPPLPSRNVASGAPVQKEEPEQEEIAPSLPSRNSIPAPKQEEAPEQAPEEEIEEEAEEAAPQLPSRSSAAPPPPPRRATPEKKPKENPWATAEYDYDAAEDNELTFVENDKIINIEFVDDDWWLGELEKDGSKGLFPSNYVSLGN
modifications: synonymous codon change D14D
In the case of B3, in assay [2], the “hua2sc (DMS score)” value amounted to 0.002961 and the HUA2_MTX2 is given as 1.616. The quadrant entry in assay [3] is “Neutral”. Moreover, in assay [4], the “lsb3sc (DMS score)” value is reported as -0.6602 and the LSB3_MTX2 stood at 0.8401.
